# Source: US10501734B2, “Compositions and methods of use thereof for making polypeptides with many instances of nonstandard amino acids” (Yale University, priority 2014, dated 2019)
# Positions count from the first letter of the chain named. In names and notes the source's numbering stands. Where two headings read alike, the source gives them in different places.
# B1: pAcFRS.1.t1: pAcFRS variant A167D, R257G, SEQ ID NO: 5 (protein)
# chain: MDEFEMIKRNTSEIISEEELREVLKKDEKSALIGFEPSGKIHLGHYLQIKKMIDLQNAGFDIIILLADLHAYLNQKGELDEIRKIGDYNKKVFEAMGLKAKYVYGSEFQLDKDYTLNVYRLALKTTLKRARRSMELIAREDENPKVAEVIYPIMQVNGCHYRGVDVDVGGMEQRKIHMLARELLPKKVVCIHNPVLTGLDGEGKMSSSKGNFIAVDDSPEEIRAKIKKAYCPAGVVEGNPIMEIAKYFLEYPLTIKGPEKFGGDLTVNSYEELESLFKNKELHPMRLKNAVAEELIKILEPIRKRL
# B2: pAzFRS.2.t1: pAcFRS variant E107T, F108Y, Q109M, R257G, SEQ ID NO: 14 (protein)
# chain: B1 chain with E107T, F108Y, Q109M, D167A
# B3: pAcFRS.2.t1: pAcFRS variant L65V, A167D, R257G, SEQ ID NO: 8 (protein)
# chain: B1 chain with L65V
# B4: pAcFRS: progenitor M. jannaschii based p-acetyl-L-phenylalanine AARS, SEQ ID NO:1 (Young, et al., 2010) (protein, listed as Methanocaldococcus jannaschii)
# chain: B1 chain with D167A, G257R
# B5: pAzFRS.1.t1: pAcFRS variant D158V, I159M, L162D, A167Y, R257G, SEQ ID NO: 11 (protein)
# chain: MDEFEMIKRNTSEIISEEELREVLKKDEKSALIGFEPSGKIHLGHYLQIKKMIDLQNAGFDIIILLADLHAYLNQKGELDEIRKIGDYNKKVFEAMGLKAKYVYGSEFQLDKDYTLNVYRLALKTTLKRARRSMELIAREDENPKVAEVIYPIMQVNVMHYDGVDVYVGGMEQRKIHMLARELLPKKVVCIHNPVLTGLDGEGKMSSSKGNFIAVDDSPEEIRAKIKKAYCPAGVVEGNPIMMEIAKYFLEYPLTIKGPEKFGGDLTVNSYEELESLFKNKELHPMRLKNAVAEELIKILEPIRKRL
# Assays:
# GFP(3TAG) = type: cell-based, E. coli
# Experimental: Liquid cell cultures of strains harboring chromosomally integrated OTSs and GFP reporter plasmids were inoculated from frozen stocks and grown to confluence overnight. Cultures were then inoculated at 1:20 dilution in LBmin media supplemented with 30 μg/ml kanamycin. Strains were inoculated by addition of 1:20 confluent cell culture (grown overnight) and allowed to grow at 34° C. to an OD600 of 0.5-0.8 in a shaking plate incubator at 650 r.p.m (˜3 h). AARS expression was then induced by the addition of 0.2% arabinose, GFP expression was induced by the addition of 60 ng/ul anhydrotetracycline, and the appropriate nsAA was added to a concentration of 1 mM. Cells were incubated at 34° C. for an additional 16 h. Liquid cell cultures of strains harboring plasmid-based OTSs and GFP or ELP-GFP reporter plasmids were inoculated from frozen stocks and grown to confluence overnight. Cultures were then inoculated at 1:20 dilution in 2×YT media supplemented with 30 μg/ml kanamycin and 20 μg/ml chloramphenicol. […] Cells were allowed to grow at 34° C. to an OD600 of 0.5-0.8 in a shaking plate incubator at 650 r.p.m (˜3 h), reporter protein expression was then induced by the addition of 60 ng/ul anhydrotetracycline, and cells were incubated at 34° C. for an additional 16 h.
# For 384 well plate-based assays, fluorescence and OD600 were directly measured following expression. For 96 well plate-based assays, cells were centrifuged at 4,000 g for 4 min. Supernatant medium was removed and cells were resuspended in PBS. This process was repeated twice with PBS. GFP fluorescence was measured on a Biotek spectrophotometric plate reader using excitation and emission wavelengths of 395 and 509 nm, respectively). Fluorescence signals were normalized by dividing the fluorescence counts by the OD600 reading. The nsAAs used in this study were purchased from Sigma-Aldrich (St. Louis, Mo.), Chemlmpex (Wood Dale, Ill.), and Bachem (Torrance, Calif.). Solutions of nsAAs (50 mM) were made in water or 50 mM NaOH; these stock solutions were diluted 50- or 100-fold (to 1 mM final concentration) into medium used for bacterial growth.
# TAG codons = experiment: MRM mass spectrometry quantitation of nsAA incorporation in ELP-GFP; design: species or system E. coli; settings: for pAcF (Y) / pAcF: calculated as 100%−Y %−F %; for near cognate suppression and mischarging events of K, P, L/I, and Q: content in proteins produced
# Experimental: Purified ELP-GFP protein was dissolved by vortex in protein solubilization buffer (15 mM Tris-HCl, 1.5 mM EDTA, pH=8.5) and the protein concentration was determined by UV280. Solubilization buffer was then added to adjust the concentration of the protein stock solutions to 2.0 μg/μl. For protein digestion, 12.5 μl of this solution (25 μg) was supplemented with 3.125 μl freshly prepared digestion buffer 5×. The composition of the digestion buffer 5× was: 50 mM Tris-HCl pH=8.5, 5 mM EDTA, 50 mM DTT and 2.5% (w/v) freshly prepared acid labile surfactant II (ALS II). Proteins were thermally denatured in a heat block at 95° C. for 5 min and the reaction was then quenched on ice. To alkylate the cysteines, 2.5 μl of 1 M Tris-HCl buffer (pH=8.5) and 5.83 μl freshly prepared 100 mM IAA solution were added. The reaction proceeded for 30 min at room temperature and in the dark. Excess IAA was quenched with 0.875 μl of 200 mM aqueous DTT solution. Next, 1.25 μl LysC enzyme solution, prepared at 7.0×10^−4 activity units/μl in water, were added and protein was digested for 4 h at 37° C. in an incubator without shaking. The digest was supplemented with 157.77 μl 105.6 mM Tris-HCl pH=8.5 buffer containing 5.28 mM CaCl2. For digestion with trypsin, 3.6 μl sequencing grade porcine trypsin (Promega), provided as solution with 0.5 μg/μl trypsin, was added and digestion proceeded for 15 h at 37° C. in an incubator without shaking. The digest was quenched by adding 15.63 μl 20% TFA solution. The pH value of the digest was tested with pH indicator paper to ensure that the pH value was between a value of 1 and 2 to ensure efficient cleavage conditions for ALSII. Detergent was hydrolyzed for 15 min at 23° C. and peptides were desalted using C18 UltraMicroSpin columns (The Nest Group, Southborough, Mass.) following the instructions provided with the columns. Eluted peptides solutions were dried in a vacuum centrifuge which was operated at 45° C. The dried peptides were then dissolved by vortex in 11 μl peptide solvent consisting of 2:3:7 by volume 70% FA, 1-propanol and 0.5% acetic acid. The peptide concentration was determined by UV280 enabling equal loading for LC-MS. Peptide stock solutions were frozen at −80° C. until use. For shotgun proteomic analysis, peptide stock solutions were diluted to a concentration of 60 ng/μl in 3:8 by volume 70% formic acid 0.1 TFA and 5 μl corresponding to 300 ng total peptides were injected for each analysis.
# The C-terminally labeled stable isotope labeled peptides (lysine (^13C6^15N2) or arginine (^13C6^15N4)) VPGAGVPGYGVPGVGK, VPGAGVPGFGVPGVGK and FEGDTLVNR were obtained as a lyophilized powder supplied as 1 nmol aliquots. Peptides were dissolved in 30% acetonitrile 0.1% formic acid at a concentration of 20 pmol/μl. Standards were then combined to obtain a master mix with 6.666 pmol/μl of each peptide. Dilution of peptide standards and protein digest for MRM was performed in Agilent polypropylene sample vials with MRM solvent consisting of 100 ng/μl sodium deoxycholate in 3:7 by volume DMSO/0.1% formic acid. Calibration of the instrument was performed with a 11 point calibration curve with 0, 1, 2, 5, 10, 20, 50, 100, 200, 500 and 1000 fmol peptide injected. Peptide stock solutions from the digestion of ELP-GFP were prepared at 5 ng/μl in MRM solvent containing 50 fmol/μl of the stable isotope labeled peptides. MRM solvent blank injections between sample injections and quality control standards analyzed before and after sample injection ensured consistent performance of the MRM platform.
# Shotgun discovery data from the analysis of stable isotope labeled peptides and ELP-GFP digests were imported into Skyline^2 software v. 2.5 to extracted suitable transitions for MRM quantitation of peptides. A detailed description of this workflow will be reported somewhere else^3. Briefly, at least 3 transitions were extracted for peptides reporting incorporation of natural and unnatural amino acids at the position of the stop codon. […]
# [1] = ELP(10TAG)-GFPMS, nsAA added pAcF
# [2] = ELP(30TAG)-GFPMS, nsAA added pAcF
# [3] = chromosomally integrated AARS, pAzF
# [4] = ELP(10TAG)MS-ELP(20TAG)-GFP, nsAA added pAcF
# [5] = ELP(20TAG)-ELP(10TAG)MS-GFP, nsAA added pAcF
# [6] = ELP(10TAG)-GFPMS, nsAA added pAzF, N = 3
Molecule,F at TAG position (TAG codons; [1]) [%],Y at TAG position (TAG codons; [1]) [%],pAcF (Y) (TAG codons; [1]) [%],F at TAG position (TAG codons; [2]) [%],Y at TAG position (TAG codons; [2]) [%],pAcF (TAG codons; [2]) [%],"near cognate suppression and mischarging events of K, P, L/I, and Q (TAG codons)",higher GFP(3TAG) production compared with the progenitor enzyme (GFP(3TAG); [3]) [fold],further results
B1,0.26,2.42,97.32,0.29,1.53,98.18,striking decrease,,"higher GFP(3TAG) production compared with the progenitor enzyme (GFP(3TAG); chromosomally integrated AARS, pAcF): ~17 fold"
B2,2.45,2.08,95.47,2.87,1.78,95.35,striking decrease,~25,"F at TAG position (TAG codons; ELP(10TAG)-GFPMS, No nsAA): 55.35%; Y at TAG position (TAG codons; ELP(10TAG)-GFPMS, No nsAA): 50.15%; pAcF (Y) (TAG codons; ELP(10TAG)-GFPMS, No nsAA): −5.50%; F at TAG position (TAG codons; [4]): 3.74%; Y at TAG position (TAG codons; [4]): 2.19%; pAcF (TAG codons; [4]): 94.06%; F at TAG position (TAG codons; [5]): 3.25%; Y at TAG position (TAG codons; [5]): 2.17%; pAcF (TAG codons; [5]): 94.58%"
B3,,,,,,,,,"selectivity toward pAcF over pAzF (GFP(3TAG); GFP(3TAG) expression, chromosomally integrated AARS): increase in selectivity"
B4,0.36,1.37,98.26,0.55,1.14,98.31,,,"decrease in the yield of GFP(3TAG) by genomic integration of the OTS (GFP(3TAG); RF1 deficient GRO, chromosomal versus plasmid OTS): ~20 fold"
B5,,,,,,,,~5.5,F at TAG position (TAG codons; [6]): 3.34%; Y at TAG position (TAG codons; [6]): 0.13%
